B1: TPR t1 (parent)
chain: GACCAAUCUGCCCUCAGAGCUCGAGAACAUCUUCGGAUGCAGAGGAGGCAGGCUUCGGUGGCGCGAUAGCGCCAACGUCCUCAACCUCCAAUGCAUCCCACCACAUGAUGAUGCCUGAAGAGCCUUGGUUUUUUG

The data set covers variants of B1. Put plainly: polymerase ribozyme fitness, log enrichment relative to wild type (log ratio); higher = more active; in vitro selection for triplet polymerase activity. An outline of the steps:
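In triplicate, a single round of in vitro selection was run on each mutant library, PCR-built and transcribed, covering one subunit of a heterodimeric triplet polymerase ribozyme. Frozen incubation at −7 °C followed annealing with a biotinylated primer, partner subunit and triplets, and extended constructs were then gel-excised, streptavidin-captured and taken through RT-PCR. Fitness is the logarithm of genotype enrichment over wild-type enrichment, from inverse-variance-weighted replicate averages of Illumina-sequenced inputs and outputs. […] only genotypes with ≥10 input reads and ≥1 read per output were kept.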
As to C76U C88A, the “polymerase ribozyme fitness (log ratio)” value is -1.29.

As for C12A G110C, the “polymerase ribozyme fitness (log ratio)” value is -3.17.

For C13U A108U, the “polymerase ribozyme fitness (log ratio)” value was -4.78.

As for A84G G93C G127U, the “polymerase ribozyme fitness (log ratio)” value was -1.68.

Regarding A46U G60C G93C G113C A121C, the “polymerase ribozyme fitness (log ratio)” value is -4.8.

Regarding A6U C15A C56A A105C, the “polymerase ribozyme fitness (log ratio)” value is -4.85.

U7C C8G C79A G110A: the “polymerase ribozyme fitness (log ratio)” value was -2.4.

As for U7G G63C, the “polymerase ribozyme fitness (log ratio)” value is -0.0723.

Take A6U C11U U55G A83U U106A G128U U130C: the “polymerase ribozyme fitness (log ratio)” value is -1.47.

Regarding C34A U54A G69U A121G, the “polymerase ribozyme fitness (log ratio)” value turned out to be 1.52.

With U78G C102G, the “polymerase ribozyme fitness (log ratio)” value is -4.94.

As for G44U C94G, the “polymerase ribozyme fitness (log ratio)” value is -3.91.

Take G48C C97G: the “polymerase ribozyme fitness (log ratio)” value is -4.14.

Consider A41U G48C C70U, for which the “polymerase ribozyme fitness (log ratio)” value was -3.25.

On to C49A C56U G110C, for which the “polymerase ribozyme fitness (log ratio)” value is -5.23.

For G44C G61U C102A, the “polymerase ribozyme fitness (log ratio)” value was -2.81.

Take C15A C53G C102U: the “polymerase ribozyme fitness (log ratio)” value is -4.5.

Consider A27C G60A G110A, for which the “polymerase ribozyme fitness (log ratio)” value is -6.05.

In the case of C3G G128C, the “polymerase ribozyme fitness (log ratio)” value was -0.539.

C3A C11U C49G C53A G60A C101A: the “polymerase ribozyme fitness (log ratio)” value is -3.22.

In the case of G42C C114A, the “polymerase ribozyme fitness (log ratio)” value is -2.26.

As for U87A C88A G110U G127A, the “polymerase ribozyme fitness (log ratio)” value was -3.99.

As for C11G A27C G113C G127C, the “polymerase ribozyme fitness (log ratio)” value is -5.64.

As for G69A G110C U129A, the “polymerase ribozyme fitness (log ratio)” value is -7.59.

For the variant G35A C53G C62U G77C A84C C124G G135C, the “polymerase ribozyme fitness (log ratio)” value was -3.97.

Turning to C22G A84G, the “polymerase ribozyme fitness (log ratio)” value is -4.29.

For A6U U14A C86A U96A, the “polymerase ribozyme fitness (log ratio)” value is -6.24.

As for G36A C98U, the “polymerase ribozyme fitness (log ratio)” value was -3.49.

With A2U C56A G120C, the “polymerase ribozyme fitness (log ratio)” value is -2.63.

Regarding G17U G71A G135U, the “polymerase ribozyme fitness (log ratio)” value is -4.32.

Take C12G G45A G107U: the “polymerase ribozyme fitness (log ratio)” value was -5.21.

Turning to C8U A18U G57A C64U C94U, the “polymerase ribozyme fitness (log ratio)” value is -4.97.

Regarding G113U U126A, the “polymerase ribozyme fitness (log ratio)” value was -4.71.

Turning to G69U C89G U106A G120C G122C, the “polymerase ribozyme fitness (log ratio)” value was -1.79.

On to A29G C115U U126G, for which the “polymerase ribozyme fitness (log ratio)” value was -3.15.

On to C28U G52U C73G U78G G120U, for which the “polymerase ribozyme fitness (log ratio)” value was -4.03.

As for C4G C8G C40G C124U, the “polymerase ribozyme fitness (log ratio)” value came out at 0.299.

Turning to A5U U38G A74G, the “polymerase ribozyme fitness (log ratio)” value is -1.15.

G44C G47C G63C C89U U132A: the “polymerase ribozyme fitness (log ratio)” value was -4.25.

As to C99U G117U, the “polymerase ribozyme fitness (log ratio)” value is -3.93.

Regarding C31U C70A G113A C123G C124A, the “polymerase ribozyme fitness (log ratio)” value is -7.42.

Take G44C G71A: the “polymerase ribozyme fitness (log ratio)” value was -1.25.

Regarding C56U G69A, the “polymerase ribozyme fitness (log ratio)” value is -3.53.

For C22U A50C C102U C124G, the “polymerase ribozyme fitness (log ratio)” value is -5.01.

In the case of U9C G69U A100U U112A C123U, the “polymerase ribozyme fitness (log ratio)” value was 2.09.

Take U14A A24G G61C C89G A91C C101A U112A G122U U125A: the “polymerase ribozyme fitness (log ratio)” value is -6.22.

In the case of U9A G35A, the “polymerase ribozyme fitness (log ratio)” value was -3.25.

In the case of C8A C72A G93C, the “polymerase ribozyme fitness (log ratio)” value was 0.271.

Consider G51C C62U U112C, for which the “polymerase ribozyme fitness (log ratio)” value was -2.27.

Regarding A41G U54A G61C, the “polymerase ribozyme fitness (log ratio)” value is -2.03.

Turning to C82G A90U, the “polymerase ribozyme fitness (log ratio)” value is -2.11.

On to U9G A37C C40U C72U C123A, for which the “polymerase ribozyme fitness (log ratio)” value is -0.161.

With C72A U96A, the “polymerase ribozyme fitness (log ratio)” value was -1.74.

C15G C97U C124U: the “polymerase ribozyme fitness (log ratio)” value was -1.59.

In the case of A18U A66C, the “polymerase ribozyme fitness (log ratio)” value is -4.55.

Regarding C28A G61A, the “polymerase ribozyme fitness (log ratio)” value is -4.06.

For the variant C86A A111C, the “polymerase ribozyme fitness (log ratio)” value came to 0.315.

Turning to A27G G39U C73U G110C, the “polymerase ribozyme fitness (log ratio)” value is -3.91.

For C15A C56G, the “polymerase ribozyme fitness (log ratio)” value is -3.39.

Regarding C49A U92G, the “polymerase ribozyme fitness (log ratio)” value is -3.98.

C53A G69C: the “polymerase ribozyme fitness (log ratio)” value is -1.38.

As to G17C A18U C40U C56G C70G A108G A111U, the “polymerase ribozyme fitness (log ratio)” value is -7.19.

Consider A111U G113A, for which the “polymerase ribozyme fitness (log ratio)” value was -4.49.

Regarding G60U G120A, the “polymerase ribozyme fitness (log ratio)” value came out at 1.38.

In the case of C11U G42C A75G U112C A121U G127A, the “polymerase ribozyme fitness (log ratio)” value is -0.694.

For A37G C49A, the “polymerase ribozyme fitness (log ratio)” value was -0.708.

For G61C G107A U112A G117U, the “polymerase ribozyme fitness (log ratio)” value is -6.86.

Regarding C64U G71U C88U, the “polymerase ribozyme fitness (log ratio)” value was -5.13.

For the variant U7A A50U C64U, the “polymerase ribozyme fitness (log ratio)” value is -0.349.

A27G C86U C94U: the “polymerase ribozyme fitness (log ratio)” value is -1.98.

In the case of U32G C49A G63C G117A, the “polymerase ribozyme fitness (log ratio)” value is -6.8.

Turning to C15G A41G C104U, the “polymerase ribozyme fitness (log ratio)” value is -2.92.

For G51A A68C C79G C80G A84C C124G G128C, the “polymerase ribozyme fitness (log ratio)” value was -7.23.

For C13G G47U U87A C88U G110U, the “polymerase ribozyme fitness (log ratio)” value was -6.69.

In the case of C70G C104U, the “polymerase ribozyme fitness (log ratio)” value was -3.03.

A66C U130G U133A: the “polymerase ribozyme fitness (log ratio)” value is -1.91.

Take G39U G63U: the “polymerase ribozyme fitness (log ratio)” value is -1.63.

In the case of C56U G57C G69C, the “polymerase ribozyme fitness (log ratio)” value is -0.611.

In the case of G48C A74C, the “polymerase ribozyme fitness (log ratio)” value is -0.603.

As to A6U C56G U129A, the “polymerase ribozyme fitness (log ratio)” value is -2.48.

Take C56U U131A: the “polymerase ribozyme fitness (log ratio)” value was -0.176.

With C12A C62A C72U C98U U126C, the “polymerase ribozyme fitness (log ratio)” value is -2.97.

For the variant C11G G17U A50U G71U C85A U87C, the “polymerase ribozyme fitness (log ratio)” value was -5.37.

As for A27U G60U G61C, the “polymerase ribozyme fitness (log ratio)” value was -5.43.
